Drawing on the supplement of paper PMC10126150, this text covers switch fluorescence ratio for 78 sequences.

± gives the standard deviation of the averaged measurements.

The test system of this data set is ATP. Kind of data set: switch fluorescence ratio, 500 uM ATP over buffer (Cy3 cluster intensity, sum of 5 cycles each) (fold (ratio)); higher = stronger signal-on switching upon ATP binding; sequences stand for … in TCGTCGGCAGCGTCAGATGTGTATAAGAGACAGTTTTTTTTTTTTTTTTTTTTTTTTT…TC. As to conditions: aptamer strand: ATP DNA aptamer (quencher-CACCTGGGGGAGTATTGCGGAGGAAGG + anchor), 100 nM annealed; ATP concentration: 500 uM. The method, boiled down:
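Imaging in selection buffer was followed by imaging after 15 min with 500 uM ATP at 22 °C, for Cy3-labelled switching-strand clusters annealed to 100 nM quencher-labelled ATP aptamer on a modified Illumina MiSeq flow-cell. Five of these buffer/ATP cycles ran, separated by NaOH stripping and re-annealing. The fluorescence ratio per cluster is summed target-cycle over summed buffer-cycle Cy3 intensity, averaged per switch-domain sequence; clusters outside 100-1000 RFU were removed.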
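Note: ATP exposure 15 min at 22 °C before imaging.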

GTGAGAGCTG: the switch fluorescence ratio was 0.952 ± 0.015.

In the case of CCTTGCCCTT, the switch fluorescence ratio turned out to be 1.03 ± 0.014.

Take AAATAATGT: the switch fluorescence ratio was determined as 1.02 ± 0.016.

On to GAAACGGCGG, for which the switch fluorescence ratio is 1.04 ± 0.055.

On to ATTTTACGTG, for which the switch fluorescence ratio came out at 1 ± 0.016.

For CGAGTACGGT, the switch fluorescence ratio is 0.979 ± 0.028.

As to TCGTGGGGGA, the switch fluorescence ratio was determined as 1.02 ± 0.028.

With TAACCGGTGC, the switch fluorescence ratio was found to be 1.065 ± 0.01.

Consider ACCACCGTTG, for which the switch fluorescence ratio was found to be 1.113 ± 0.0039.

As for TGCAAAAGAG, the switch fluorescence ratio worked out at 1.01 ± 0.062.

On to AAGTTGATGT, for which the switch fluorescence ratio was 1 ± 0.017.

For the sequence AGGAATTTAG, the switch fluorescence ratio came to 1.02 ± 0.03.

In the case of ACTAAATAGT, the switch fluorescence ratio amounted to 0.987 ± 0.013.

As to TGTTCTTAAG, the switch fluorescence ratio is 0.975 ± 0.022.

For the sequence GGATATTGCT, the switch fluorescence ratio was found to be 0.949 ± 0.043.

Consider TTGTCCGTGC, for which the switch fluorescence ratio was found to be 1.14 ± 0.15.

As for CGGCTGGGTA, the switch fluorescence ratio was 1.014 ± 0.0054.

Regarding AATGTGCAAA, the switch fluorescence ratio was 1.01 ± 0.022.

For TTTGTAGGGA, the switch fluorescence ratio was found to be 1.02 ± 0.028.

For the sequence ATGTAACGAG, the switch fluorescence ratio stood at 1.01 ± 0.022.

Turning to CTCGTTCTTT, the switch fluorescence ratio is 1 ± 0.031.

As to ATATAGGGGG, the switch fluorescence ratio came out at 0.997 ± 0.014.

Take TTTAGGGTCG: the switch fluorescence ratio was 1.007 ± 0.0016.

Consider TTAAGAGATA, for which the switch fluorescence ratio turned out to be 0.989 ± 0.018.

Regarding ATCAGTTAAT, the switch fluorescence ratio was determined as 0.996 ± 0.032.

For GACTTGTAGG, the switch fluorescence ratio turned out to be 0.9844 ± 0.0049.

As for TTGTTAGATC, the switch fluorescence ratio was found to be 0.984 ± 0.036.

In the case of TTGAGCAGCG, the switch fluorescence ratio worked out at 1.09 ± 0.07.

TTTGCTTA: the switch fluorescence ratio was found to be 0.995 ± 0.012.

For the sequence GAGATGTAGG, the switch fluorescence ratio came to 1 ± 0.014.

Consider TTTCAGGATG, for which the switch fluorescence ratio was 0.963 ± 0.017.

With GCCGGGGTGC, the switch fluorescence ratio came out at 1.06 ± 0.028.

In the case of TTGTTGATTT, the switch fluorescence ratio turned out to be 1.02 ± 0.034.

As for TAGGCAGGCG, the switch fluorescence ratio worked out at 1.01 ± 0.1.

With GAGTGGATAG, the switch fluorescence ratio is 0.996 ± 0.018.

Turning to TGCTATACTT, the switch fluorescence ratio came to 1.46 ± 0.15.

On to TTACCGGTAG, for which the switch fluorescence ratio was 0.993 ± 0.059.

CTGTTTAATG: the switch fluorescence ratio came out at 0.9871 ± 0.0038.

With GCAGTATGGG, the switch fluorescence ratio is 1 ± 0.028.

As to TCATTCCACT, the switch fluorescence ratio is 1.031 ± 0.0059.

Take CGTAAGCGTA: the switch fluorescence ratio stood at 1.04 ± 0.032.

For TTCGTTCTTC, the switch fluorescence ratio came out at 0.993 ± 0.019.

In the case of AGTTTTGGTC, the switch fluorescence ratio came out at 1.002 ± 0.0056.

Regarding GATCTGAAGT, the switch fluorescence ratio was 1.02 ± 0.012.

Turning to CGGAAGCTAA, the switch fluorescence ratio was determined as 1.46 ± 0.16.

As to TGATAGGAAG, the switch fluorescence ratio was determined as 1 ± 0.019.

Regarding TGAGGGGATG, the switch fluorescence ratio was found to be 0.994 ± 0.023.

On to TAAATCGGGA, for which the switch fluorescence ratio is 0.9928 ± 0.0037.

As to AGACGCAGTG, the switch fluorescence ratio is 0.9834 ± 0.0038.

As to TTAGAATACG, the switch fluorescence ratio came out at 1 ± 0.045.

Take AAAAATAGTT: the switch fluorescence ratio is 1.03 ± 0.07.

In the case of AGTGTGGGCA, the switch fluorescence ratio turned out to be 0.965 ± 0.026.

As for ATGTTCTATA, the switch fluorescence ratio came out at 0.97751 ± 0.00084.

Turning to CCCTTGATAC, the switch fluorescence ratio stood at 2.24 ± 0.1.

For ATGTGACTCT, the switch fluorescence ratio stood at 1.01 ± 0.043.

Turning to TGGTTCAGAG, the switch fluorescence ratio was determined as 0.969 ± 0.044.

TTGGGCAAGG: the switch fluorescence ratio amounted to 1.02 ± 0.026.

In the case of ATAGGTTTGT, the switch fluorescence ratio came out at 0.989 ± 0.013.

Turning to GGGTGAAATA, the switch fluorescence ratio was 1.02 ± 0.019.

Regarding GGCCCACCCA, the switch fluorescence ratio was found to be 1.02 ± 0.072.

GGGTGCCCTA: the switch fluorescence ratio turned out to be 0.986 ± 0.051.

For the sequence CGTATCAAAC, the switch fluorescence ratio is 1.23 ± 0.049.

As for TTTACCCCAA, the switch fluorescence ratio is 1.15 ± 0.095.

On to GGCTAAGGGG, for which the switch fluorescence ratio was found to be 0.992 ± 0.023.

With TTTTTTGAAC, the switch fluorescence ratio came to 1.01 ± 0.03.

With TATCGGATAA, the switch fluorescence ratio is 0.9947 ± 0.0037.

Regarding AAACTTAATC, the switch fluorescence ratio came out at 1.04 ± 0.05.

Consider TAACACCGGC, for which the switch fluorescence ratio stood at 1.06 ± 0.025.

As for CAGTAACTGT, the switch fluorescence ratio is 1.02 ± 0.027.

AAACGGTTAC: the switch fluorescence ratio is 1.24 ± 0.038.

As to AAGGTGGTTT, the switch fluorescence ratio was 0.957 ± 0.048.

Regarding TATCGTTGTT, the switch fluorescence ratio amounted to 1 ± 0.021.

Take TAATATGGTT: the switch fluorescence ratio was 1.03 ± 0.055.

With GGGTGAAGAT, the switch fluorescence ratio came out at 1.011 ± 0.0088.

Consider TTTTACCAG, for which the switch fluorescence ratio came to 1.02 ± 0.051.

Consider ATTAAGAGGC, for which the switch fluorescence ratio turned out to be 1.02 ± 0.06.

On to TTTTCTATCT, for which the switch fluorescence ratio amounted to 1.06 ± 0.057.

On to GAGGTACGCT, for which the switch fluorescence ratio turned out to be 1.01 ± 0.021.
